In the DeepSol protein solubility set:

Experiment: soluble on expression in E. coli; label from the status in PepcDB or PDB records

| Sequence | soluble on expression in E. coli |
| --- | --- |
| GMNNLYHLKVRCSSLHKIIGEPKSKADKEAGKLTDTAKSAVREMAKFDLFGYNAFEGNKYTQKGNELEEQAIKLSGVTRGLALKKNTERRENEFITGECDIYVPSRKLIIDTKCSWDIGSHPFFTDEAQEKAKKAGYDIQMQGYMWLWDCDQAQIDFVLFPTPLNLISAYDSDFKLIDLVEQIPQIRRITTVIIQRDNELIDKIKERVSAAQKYYDQLISEMS | soluble |
| GMNSDIIVADFWKNNEEILTDFDKDSFCESWTENEMWSIEFKVAQTPKNAHCYSFLDYESSVYFRGQEFVVKQLSHDAVGKTLSKDIRAPHIYYTCQDGRQDDAITGSFTLEQCLTHIFKTDNRGFSWEIIDPSNILEKVQQENFGNNNYLTLIDQLLDDYGVVVIPDNRHLVFKPREIYGAKTENFIRYKYNTDEASFDIDTLSLKTKIKGYGKVDSNGNNYFSPITYTSPEVEKWGIRWQEPVSDERYTVAGNMQRRLKLELQDYPATTGSVILKNDYECEKGDYVLFIYEPLGIDYDVQIVAYKKYPFTIKAPEITLSNNKKSIVSIMAQLAKVLKGAK | soluble |
| GMPEIHQSIAQHYHERTKYDPETIASKSQRLDWAKQPVPFKEYKIGSAIDLKPYLQETPEVFVNDTNGQWWQRLSRLLFRSYGLTARMPSMGNTVYLRAAPSAGGLYPAEVYVVSRGTPLLSPGLYNYQCRTHSLIHYWESDVWQSLQEACFWHPALESTQLAIIVTAVFYRSAWRYEDRAYRRICLDTGHLLGNIELSAAITDYRPHLIGGFIDEAVNDLLYIDPLQEGAIAVLPLADLLDIQQNISPGCTALPSATETNYPQVPDGELLKYFHHHTQISASITGKLNLPTVIQEKSLEDKYNFPFCLKISTVSAPIYWGENLSDLEITMHKRRSTRAYNGEELTFDELKALLDFTYQPQNYIDQSLDNSPDYFDLNLIETFIAVCGVQGLEAGCYYYAPKAQELRQIRFKNFRRELHFLCLGQELGRDAAAVIFHTSDLKSAIAQYGDRVYRYLHMDAGHLGQRLNLAAIQLNLGVSGIGGFFDDQVNEVLGIPNDEAVIYITTLGRPR | soluble |
| GMQTTEIDLRLTEVSQQLTMVLVPGLRDSDDEHWQSHWERRFPHWQRIRQREWYQADLDRWVLAIRRELSVCTQPVILIGHSFGALAACHVVQQGQEGIAGVMLVAPAEPMRFEIDDRIQASPLSVPTLTFASHNDPLMSFTRAQYWAQAWDSELVDVGEAGHINAEAGFGPWEYGLKRLAEFSEILIPNR | soluble |
| GMSDQRYNLRGVSASKEDVHNAIKNIDKGIFPKAFCKIIPDILGGDPEYCNIMHADGAGTKSSLAYMYWKETGDLSVWKGIAQDALIMNIDDLLCVGAVDNILVSSTIGRNKLLVPGEVISAIINGTDELLAELREMGVGCYATGGETADVGDLVRTIIVDSTVTCRMKRSDVIDNKNIQGGDVIVGLASSGQATYEKEYNGGMGSNGLTSARHDVFSKYLAKKYPESYDAAVPKELVYSGGLKLTDKIEELGIDAGKMVLSPTRTYAPVIKVLLDKLRSQIHGMVHCSGGAQTKVMHFVENKRVTKDNLFPIPPLFRTIQEQSGTDWSEMYKVFNMGHRMEIYIAPEHAEEVIGISKSFGIDAQIVGFVEEADKNELIIESEKGRFTY | soluble |
| GMSESNRQRATGLVQAYYEAFNRGDWDAMLAFLAEDVAHDLNQGPREIGRAAFASFLQRMNDSYREQLRDIVVTANDEGTRVGAEYVVHGVYHTTDEGLPDANGQTYVLPGGAFFDVRDGQITRVTNYYNLQEWIAQVSR | soluble |
| GMSHSLKDFLEACETLGTLRLIVTSSAAVLEARGKIEKLFYAELAKGKYANMHTEGFEFHLNMEKITQVKFETGEAKRGNFTTYAIRFLDEKQESALSLFLQWGKPGEYEPGQVEAWHTLKEKYGEVWEPLPVQL | soluble |
| GMSSSDRYMQRGVSSQKEDVHKAIKSIDKGIYPRAFCKIIPDILGGDPEYCNIMHADGAGTKSSLAYVYWKETGDISVWKGIAQDAVIMNIDDLICVGAVDNILLSSTIGRNKNLIPGEVLAAIINGTEEVLQMLRDNGIGIYSTGGETADVGDLVRTIIVDSTVTCRMKRQDVISNENIKAGNVIVGFASYGQTSYETEYNGGMGSNGLTSARHDVFNNVLASKYPESFDPKVPENLVYSGEMNLTDPYLNVPLDAGKLVLSPTRTYAPLMKEIIHQYKGKLDGVVHCSGGGQTKVLHFTDATTHIIKDNLFDVPPLFQLIQGQSNTPWEEMYKVFNMGHRLEIYTDAAHAEGMIAIAKKFNIEAKIIGRVEAPVAGKRLTITGPQGTEYTYA | soluble |
| GMTALRQDIDPNGLLEYSVVYTDRALNHMSKAFQEVMNDLLSNLKTVYNAEAAVIIPGSGTYGMEAVARQLTIDEDCLIIRNGWFSYRWTQILEKGKFAKSSTVLTAERTEDTEAPKPFAPVDIETAVAKIKEDKSAIVYAPHVETSSGIILSEEYIKALSEAVHSVGGLLVIDCIASGCVWLDMKELGIDVLISAPQKGWSSTPCAGLVMLSAAAIKKVESTESNCFSLDLKQWLTIMRAYENGGHAYHATMPTDSLRQFRDAILEAKEIGFDILRDAQWELGNRVRKVLTDKGIESVAAEGFEAPGVVVSYTERDDMHKGSAFAEAGLQIAAGVPLKVGEPDNFKTFRLGLFGLDKLTDIDGTVERFEKALDEVLAK | soluble |
| GMTQTTPQPDPSRLRDELVRLHGKASPEWDSLVRLDPRFVDAYLKFAGVPQRRNHLDDKTRAFIALAADACATQLYAPGVARHIERALSFGATREELIEVLELVSTIGIHTSNVGVPVLLEVLEEEGLRKGAPPLDERRQKLKAEFETNRGYWHPTWEGLLELDPDLFEAYVEFSSVPWRTGVLSPKIKEFMYCAFDASATHLYVPGLKLHIRNALRYGATAEELMELLEIVSVTGIHGAELGAPLLEAALKRSGAAAGEPHA | soluble |
| GMVGINTDTENISELLKTYWSIQRISAGYADQNAASLGLTIQQLAMINVIYSTPGISVADLTKRLIITGSSAAANVDGLISLGLVVKLNKTIPNDSMDLTLKLSKKGEDLSKRSTANAFMYKAMMKVFENLTENEIEELIRLNKKVETLLKKSK | soluble |
| GNFGWSSYLTYSLNRNKVVELLRNYEDPYTHELTSLDRIDMGGTSMYKMILTEGGSIGDIYVNTLRTDEHGAIYVHPSDQVVVTQPDEFVKAGNSAPKYNLGWGNTFSYKGLSLGFLFTARVGGVVVSQTQATMDAYGSSKATAIARDNGGAIVNGRPIGAEDYYTKIGGAGAQGGIGSMYTYSATNVRLAELSLGYDIPINKYVDWIKGLNVSFIGKNLFFLYRKAPFDPELTASTGTYFQGIDMFMSPSLRNLGFSVKVNF | not soluble |
| GNMDSKAVEELSATECHQWYKKFMTECPSGQLTLYEFKQFFGLKNLSPSANKYVEQMFETFDFNKDGYIDFMEYVAALSLVLKGKVDQKLRWYFKLYDVDGNGCIDRGELLNIIKAIRAINRCNEAMTAEEFTNMVFDKIDINGDGELSLEEFMEGVQKDEVLLDILTRSLDLTHIVKLIQNDGKNPHAPEEAEEAAQ | soluble |
| GPGPAIGEVIGISVNDPRVKEIAEFALKQHAEQNLILAGVDAGQIIKGIPHWDNYYNLILSAKHSPHEFSKFYNVVVLEKASDNSLKLVAFVPLF | soluble |
| GPGSMAEEKIKIIVVGSVKSGKTTITNFLSGTRETATSKYYETNPLRIVETEIELDSMNFTDRRVVFSGGDAKTKRVLVQIWDLSGNSKHQAGWPAVANKADGIIFVFNPALKNGEKELSLWHKTFAVNQSELDALGNFAVRVPDKHCLVFAHHSTPPSNVAGEGLPSMPKGLEKIKVLETSLDYHSDNFKAAFDKLIESIVVARMEAEEDEVLQREGRMHF | soluble |
| GPGSMAFGNASKGTDDYTPEEHLTAAVMEYKKLEAANQNSVEHMYNVLSSPFKIGSKPCEAIRGDALRCLSEIIGNFTAKSTSGTDGSTVMANSASIVSQELPPIHRCYESVLHYESCVLERTLSRHNSMVATFEARRLREADSAREAAAAGGDI | not soluble |
| GPGSMCSPIADNADMIVPSADTCCPNTVFERVLRCACIVMRVGDDPGYIWTPQRLGAGSFGTVTLAYRHEGDAVWRKTAVKRISLRKETRLSAVLEKVRCTGREVALCRRAGVSPHVVPMYKPWFDCREGVIALPMDAGDFSLEQYAVHCGFRFPPLALLSMCAQCARAVAHLHRRGVVHRDVKPDNFVVNVFDTVGGAGAGGDGDCGEARPPFVRILDFGLACGVEEVEQELKRCVGTPHYMAPETFSHLCDCDVPAACDVWSLGVTLFRLATGVFPVFDQDVTASWPPASASSARLGVPRLRSPWPRVVERCPAPW | not soluble |
